# Data reported in patent US9879306B2, “Luciferase biosensors for cAMP” (PROMEGA CORPORATION, priority 2008, dated 2018).
# Where a chain is given by its changes, count along the chain named. Names and notes keep the numbering of the source.
# B1: 7A1: cAMP biosensor, RIIβB E284A and V316I, linker …; SEQ ID NO:113, 114 (protein)
# chain: MPGAVGKVVPFFEAKVVDLDTGKTLGVNQRGELCVRGPMIMSGYVNNPEATNALIDKDGWLHSGDIAYWDEDEHFFIVDRLKSLIKYKGYQVAPAELESILLQHPNIFDAGVAGLPDDDAGELPAAVVVLEHGKTMTEKEIVDYVASQVTTAKKLRGGVVFVDEVPKGLTGKLDARKIREILIKAKKGSSGGSGGSGGGMYESFIESLPFLKSLEFSERLKVVDVIGTKVYNDGEQIIAQGDSADSFFIVESGEVKITMKRKGKSEVEENGAVEIARCSRGQYFGELALVTNKPRAASAHAIGTVKCLAMDVQAFERLLGPCMEIMKRNIATYEEQLVALFGTNMDIVAKNIKKGPAPFYPLEDGTAGEQLHKAMKRYALVPGTIAFTDAHIEVDITYAEYFEMSVRLAEAMKRYGLNTNHRIVVCSENSLQFFMPVLGALFIGVAVAPANDIYNERELLNSMGISQPTVVFVSKKGLQKILNVQKKLPIIQKIIIMDSKTDYQGFQSMYTFVTSHLPPGFNEYDFVPESFDRDKTIALIMNSSGSTGLPKGVALPHRTACVRFSHARDPIFGNQIIPDTAILSVVPFHHGFGMFTTLGYLICGFRVVLMYRFEEELFLRSLQDYKIQSALLVPTLFSFFAKSTLIDKYDLSNLHEIASGGAPLSKEVGEAVAKRFHLPGIRQGYGLTETTSAILITPEGV
# notes: cAMP biosensor, RIIβB E284A and V316I, linker …
# B2: GS358: parent cAMP biosensor Met-(FF luc 359-544)-GSSGGSGGSGGG-(RIIβB)-(FFluc4-355)-Val; SEQ ID NO:111, 112 (protein)
# chain: B1 chain
# B3: 4H7: 7A1 biosensor with F407Y in RIIβb; SEQ ID NO:35, 36 (protein)
# chain: B1 chain with S190N, G191W, G192D, G195C, G197R, G198E, E218A, V250I, F341Y
# B4: 16A2: 7A1 biosensor with F518L in Luc2.0; SEQ ID NO:60, 61 (protein)
# chain: B1 chain with F161L, S190N, G191W, G192D, G195C, G197R, G198E, E218A, V250I
# B5: 7A1-ILY: 7A1 background with Luc2.0 F369I, F518L and RIIβB F407Y; SEQ ID NO:27, 28 (protein)
# chain: MPGAVGKVVPFIEAKVVDLDTGKTLGVNQRGELCVRGPMIMSGYVNNPEATNALIDKDGWLHSGDIAYWDEDEHFFIVDRLKSLIKYKGYQVAPAELESILLQHPNIFDAGVAGLPDDDAGELPAAVVVLEHGKTMTEKEIVDYVASQVTTAKKLRGGVVLVDEVPKGLTGKLDARKIREILIKAKKGSNWDSGCSREGMYESFIESLPILKSLEFSARLKVVDVIGTKVYNDGEQIIAQGDSADSFYIIESGEVKITMKRKGKSEVEENGAVEIARCSRGQYFGELALVTNKPRAASAHAIGTVKCLAMDVQAFERLLGPCMEIMKRNIATYEEQLVALYGTNMDIVAKNIKKGPAPLYPLEDGTAGEQLHKAMKRYALVPGTIAFTDAHIEVDITYAEYFEMSVRLAEAMKRYGLNTNHRIVVCSENSLQFFMPVLGALFIGVAVAPANDIYNERELLNSMGISQPTVVFVSKKGLQKILNVQKKLPIIQKIIIMDSKTDYQGFQSMYTFVTSHLPPGFNEYDFVPESFDRDKTIALIMNSSGSTGLPKGVALPHRTACVRFSHARDPIFGNQIIPDTAILSVVPFHHGFGMFTTLGYLICGFRVVLMYRFEEELFLRSLQDYKIQSALLVPTLFSFFAKSTLIDKYDLSNLHEIASGGAPLSKEVGEAVAKRFHLPGIRQGYGLTETTSAILITPEGV
# System: HEK293 cells
# Experiment: Screening of linker variant cAMP biosensors in HEK293 cells with isoproterenol
# Format: cell-based
# Details: fold improvement in luminescent signal over parental GS358 with E284A and V316I; HEK293, 10 μM isoproterenol
# From the text: The linker variants of Example III were inserted into a CP-FF construct as in Example II. The construct further comprised a mutant RIIβb cAMP binding site containing the substitutions at […] and […]. As in Example II, the constructs were first screened in E. coli to identify linker sequences which provided improved luminescence, improved response or both. The linker variants were then screened for improved luminescence signal, response to isoproterenol, or both in HEK293 cells. On day 1, 15,000 HEK293 cells were plated to the individual wells of a 96-well plate. On day 2, cells were transiently transfected with plasmid DNAs encoding a cAMP biosensor variant comprising a variant linker sequence using the LT1 reagent from Mirus Bio. […] Isoproterenol was added to 10 μM final concentration to the individual wells, and luminescence was monitored continuously in time (Mithras luminometer; 1 second integration time). Once measurements were complete (>30 minutes), cells were lysed, and Renilla luciferase activity was measured. Biosensor luminescence (FF RLU) was normalized using the Renilla luminescence signal (RL norm), and fold-induction (response) was calculated by dividing the normalized biosensor luminescence from isoproterenol-treated wells by the normalized luminescence from control wells that received no compound addition (Figure). […]
row,Molecule,Signal Improvement [fold]
1,B1,2.4

# Same assay, conditions: fold improvement in response to isoproterenol over parental GS358 with E284A and V316I; HEK293, 10 μM
row,Molecule,Response Improvement [fold]
1,B1,1.4

# System: HEK293 cells
# Experiment: Luminescence and fold response of biosensor clones in HEK293 cells after isoproterenol or FSK
# Format: cell-based
# Details: 5 minutes after isoproterenol
# Description: B. HEK293 cells were transiently transfected with plasmid DNAs encoding various biosensor mutants as above. These biosensor mutants contained the E284A and V316I mutation in the RIIbetaB cAMP binding domain and the modified linker sequence 7A1 (GSNWDSGCSREG; SEQ ID NO: 129). The clones also contained the additional mutations outlined in Table 5. Cells were equilibrated for 2 hours at room temperature with 2 mM EF-Luc. Luminescence was measured 5 and 15 minutes after addition of the isoproterenol and 15 minutes after addition of FSK. Fold response (response; Resp.) was calculated by dividing relative light units (RLUs) from induced cells by the RLUs from uninduced cells. As a control, the biosensor GS358 and 7A1 were included.
row,Molecule,Isoproterenol-5 minutes Induced [RLU]
1,B1,73287
2,B2,41610
3,B3,42467
4,B4,44890

# Same assay, conditions: 15 minutes after FSK
row,Molecule,Forskolin (FSK) Induced [RLU]
1,B1,161755
2,B2,195335
3,B3,88555
4,B4,153670

# Same assay, conditions: 15 minutes after isoproterenol
row,Molecule,Isoproterenol-15 minutes Induced [RLU]
1,B1,173340
2,B2,184150
3,B3,207210
4,B4,141135

# Same assay, conditions: RLU induced / RLU uninduced, 5 minutes after isoproterenol
row,Molecule,Isoproterenol-5 minutes Resp [fold]
1,B1,60
2,B2,8
3,B3,86
4,B4,85

# Same assay, conditions: RLU induced / RLU uninduced, 15 minutes after FSK
row,Molecule,Forskolin (FSK) Resp [fold]
1,B1,47
2,B2,13
3,B3,33
4,B4,76

# Same assay, conditions: RLU induced / RLU uninduced, 15 minutes after isoproterenol
row,Molecule,Isoproterenol-15 minutes Resp [fold]
1,B1,51
2,B2,12
3,B3,78
4,B4,70

# Same assay, conditions: uninduced cells, 5 minutes
row,Molecule,Isoproterenol-5 minutes Uninduced [RLU]
1,B1,1231
2,B2,4943
3,B3,493
4,B4,527

# Same assay, conditions: uninduced cells, 15 minutes
Molecule,Forskolin (FSK) Uninduced [RLU],Isoproterenol-15 minutes Uninduced [RLU]
B1,3415,3415
B2,14895,14895
B3,2665,2665
B4,2025,2025

# Biological target: T1, dopamine D2 receptor (Homo sapiens, UniProt P14416)
# T1 construct: expressed in transfected cells
# Experiment: Forskolin, dopamine and haloperidol responses of biosensor clones in HEK293 cells stably expressing the dopamine D2 receptor
# Format: cell-based
# Details: 3 μM FSK + 0.3 μM dopamine, 10 minutes
# From the text: To measure changes in the intracellular concentration of cAMP, HEK293 cells are transiently transfected with mutant cAMP biosensors followed by treatment with compounds known to increase or decrease the intracellular cAMP concentration through GPCR activation of Gs- or Gi-coupled receptors, respectively.
# HEK293 cells stably expressing the dopamine D2 receptor were transiently transfected with the mutant cAMP biosensors from Example VIIB. Cells were also transfected with either 7A1 (Example III) or GS358 (parent biosensor) as controls. Cells were equilibrated for 2 hours at room temperature using 2 mM EF-luc. Antagonist assay wells were pre-treated for 10-15 minutes at room temperature with 10 μM Haloperidol (Halo). Next, the following reagents were added to their respective wells: media alone to “untreated” samples; 3 μM forskolin (FSK) to “forskolin-treated” samples; 3 μM FSK+0.3 μM dopamine to “agonist-treated” samples; and 3 μM FSK+0.3 μM dopamine to the aforementioned wells pre-treated with Halo. The cells were then incubated at room temperature for 10 minutes and luminescence was measured. Fold response for FSK was calculated by dividing the RLU from “forskolin-treated” cells by the RLU from the “untreated” cells. Fold response for dopamine treatment was calculated by dividing the RLU from the “agonist-treated” cells by the RLU from the “forskolin-treated” cells. Fold response for Haloperidol treatment was calculated by dividing the RLU from the cells treated with haloperidol then forskolin plus dopamine by the RLU of cells treated with forskolin plus dopamine alone.
# T1 sequence (P14416 whole entry, species assumed): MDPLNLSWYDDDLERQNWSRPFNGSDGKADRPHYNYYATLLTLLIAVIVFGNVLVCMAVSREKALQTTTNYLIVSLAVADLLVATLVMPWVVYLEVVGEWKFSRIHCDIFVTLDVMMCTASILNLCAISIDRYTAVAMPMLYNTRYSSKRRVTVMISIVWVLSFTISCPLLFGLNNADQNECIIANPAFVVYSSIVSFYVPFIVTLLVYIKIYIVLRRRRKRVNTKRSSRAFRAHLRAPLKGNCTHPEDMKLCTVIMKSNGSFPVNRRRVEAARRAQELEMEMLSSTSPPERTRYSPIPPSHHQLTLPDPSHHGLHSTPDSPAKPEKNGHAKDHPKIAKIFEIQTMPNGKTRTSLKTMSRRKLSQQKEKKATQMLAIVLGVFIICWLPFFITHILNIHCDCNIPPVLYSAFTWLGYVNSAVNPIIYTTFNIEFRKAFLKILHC
row,Molecule,Dopamine Induced [RLU]
1,B1,1860
2,B2,5153
3,B3,583
4,B4,95

# Same assay, conditions: 3 μM FSK, 10 minutes
row,Molecule,Forskolin (FSK) Induced [RLU]
1,B1,4709
2,B2,9166
3,B3,3180
4,B4,4117

# Same assay, conditions: 10 μM Haloperidol pre-treatment, then 3 μM FSK + 0.3 μM dopamine
row,Molecule,Halo Induced [RLU]
1,B1,5429
2,B2,9218
3,B3,2778
4,B4,223

# Same assay, conditions: RLU agonist-treated / forskolin-treated
row,Molecule,Dopamine Response [fold]
1,B1,0.38
2,B2,0.56
3,B3,0.18
4,B4,0.33

# Same assay, conditions: RLU forskolin-treated / untreated
row,Molecule,Forskolin (FSK) Response [fold]
1,B1,15
2,B2,5
3,B3,14
4,B4,28

# Same assay, conditions: RLU haloperidol then FSK + dopamine / FSK + dopamine alone
row,Molecule,Halo Response [fold]
1,B1,2.9
2,B2,1.9
3,B3,4.8
4,B4,2.3

# Same assay, conditions: untreated (media alone), 10 minutes
row,Molecule,Forskolin (FSK) Uninduced [RLU]
1,B1,307
2,B2,1704
3,B3,230
4,B4,147

# Biological target: T2, GPR41 (Homo sapiens, UniProt O14843)
# T2 sequence (O14843 1-346): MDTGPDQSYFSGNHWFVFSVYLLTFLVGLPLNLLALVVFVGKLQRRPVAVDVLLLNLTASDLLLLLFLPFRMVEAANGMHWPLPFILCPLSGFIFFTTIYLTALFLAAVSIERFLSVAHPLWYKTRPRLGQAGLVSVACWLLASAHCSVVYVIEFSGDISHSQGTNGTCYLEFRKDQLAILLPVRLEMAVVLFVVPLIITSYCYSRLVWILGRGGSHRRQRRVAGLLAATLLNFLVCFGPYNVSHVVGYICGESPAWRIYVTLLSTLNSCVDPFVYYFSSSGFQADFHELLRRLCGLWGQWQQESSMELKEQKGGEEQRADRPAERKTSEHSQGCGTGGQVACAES
# Experiment: Sodium proprionate CRC with biosensor variants in HEK293 cells stably expressing GPR41
# Format: cell-based
# Details: with FSK 1 μM
# How it was run: (§1)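 Luminescent cAMP readout: EC50 and fold response from a sodium propionate concentration-response, tested ± FSK. Luminescence was read before compound and 30 min after. Cells were HEK293 stably expressing GPR41, carrying a transiently transfected cAMP biosensor variant and preloaded 2 h at room temperature with 5 mM EF-luc in CO2-independent medium plus 10% FBS.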
row,Molecule,Fold Response Na proprionate + FSK(1 μM)
1,B2,3.19 (n = 7) fold
2,B3,2.98 fold
3,B4,3.76 fold
4,B5,8.96 fold

# Same assay, conditions: without FSK, ratio of induced to uninduced signal
row,Molecule,Fold Response Na proprionate
1,B2,2.56 (n = 8) fold
2,B3,1.94 fold
3,B4,2.73 fold
4,B5,2.49 fold

# System: GPR41
# Experiment: as above
# Format: cell-based
# Details: ratio of RLU of FSK treated well to untreated well
# How it was run: as §1
row,Molecule,Fold Signal Change
1,B2,9.48 (n = 8) fold
2,B3,93.6 fold
3,B4,89.7 fold
4,B5,194.6 fold
